Laboratory results reported in paper PMC12957837, “Crotonylation driving Streptococcus pneumoniae adaption and virulence” (Journal of Advanced Research, 2025).
Positions count from the first letter of the chain named. Names may count otherwise.

How the values were obtained:
SPD_0839 = SPD_0839 (Streptococcus pneumoniae, UniProt A0A0H2ZP99); test: isothermal titration calorimetry; type: binding
[1] = target: the molecule itself; test: nanoparticle tracking analysis; NanoSight NS300, samples diluted with PBS, 25 °C; particle concentration of PLY and its mutants
[2] = target: the molecule itself; test: native gel or EMSA; native gel of purified PLY and its mutants; oligomeric and monomeric forms marked by arrows
[3] = target: the molecule itself; test: SDS-PAGE without β-mercaptoethanol + Western blot; 1 µg Ply or mutant incubated with 125 µM crotonyl-CoA at 25 °C for 16 h; SDS loading buffer without β-mercaptoethanol, 55 °C for 10 min; 6 % SDS-PAGE; anti-Ply Western blot

SPD_0839, sequence (A0A0H2ZP99 entry or part of it): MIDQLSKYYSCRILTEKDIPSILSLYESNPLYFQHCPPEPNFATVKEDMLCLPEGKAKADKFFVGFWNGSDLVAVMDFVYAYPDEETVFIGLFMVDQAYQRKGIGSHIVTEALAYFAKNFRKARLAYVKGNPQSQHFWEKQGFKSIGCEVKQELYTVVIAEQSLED

CC(=O)SCCNC(=O)CCNC(=O)[C@H](O)C(C)(C)COP(=O)(O)OP(=O)(O)OC[C@H]1O[C@@H](n2cnc3c(N)ncnc32)[C@H](O)[C@@H]1OP(=O)(O)O [AcCoA]
Kd (SPD_0839): 10.4 µM

C/C=C/C(=O)SCCNC(=O)CCNC(=O)[C@H](O)C(C)(C)COP(=O)(O)OP(=O)(O)OC[C@H]1O[C@@H](n2cnc3c(N)ncnc32)[C@H](O)[C@@H]1OP(=O)(O)O [CrCoA]
Kd (SPD_0839): 1 µM

B1: pneumolysin (PLY), wild type (natural protein, Streptococcus pneumoniae D39, UniProt Q04IN8 1-471, looked up)
chain: MANKAVNDFILAMNYDKKKLLTHQGESIENRFIKEGNQLPDEFVVIERKKRSLSTNTSDISVTATNDSRLYPGALLVVDETLLENNPTLLAVDRAPMTYSIDLPGLASSDSFLQVEDPSNSSVRGAVNDLLAKWHQDYGQVNNVPARMQYEKITAHSMEQLKVKFGSDFEKTGNSLDIDFNSVHSGEKQIQIVNFKQIYYTVSVDAVKNPGDVFQDTVTVEDLKQRGISAERPLVYISSVAYGRQVYLKLETTSKSDEVEAAFEALIKGVKVAPQTEWKQILDNTEVKAVILGGDPSSGARVVTGKVDMVEDLIQEGSRFTADHPGLPISYTTSFLRDNVVATFQNSTDYVETKVTAYRNGDLLLDHSGAYVAQYYITWDELSYDHQGKEVLTPKAWDRNGQDLTAHFTTSIPLKGNVRNLSVKIRECTGLAWEWWRTVYEKTDLPLVRKRTISIWGTTLYPQVEDKVEND
notes: pneumolysin (PLY) of Streptococcus pneumoniae serotype 2 strain D39; also called wild-type PLY; WT PLY
binding result [1]: binds

B2: pneumolysin (PLY) K171R (natural protein, Streptococcus pneumoniae D39, UniProt Q04IN8 1-471, looked up)
chain: B1 chain with K171R
notes: pneumolysin (PLY) of Streptococcus pneumoniae serotype 2 strain D39 with K171R
binding result [1]: binds

B3: pneumolysin (PLY) K442R (natural protein, Streptococcus pneumoniae D39, UniProt Q04IN8 1-471, looked up)
chain: B1 chain with K442R
notes: pneumolysin (PLY) of Streptococcus pneumoniae serotype 2 strain D39 with K442R
binding result [1]: binds

B4: pneumolysin (PLY) K164R (natural protein, Streptococcus pneumoniae D39, UniProt Q04IN8 1-471, looked up)
chain: B1 chain with K164R
notes: pneumolysin (PLY) of Streptococcus pneumoniae serotype 2 strain D39 with K164R
binding result [2]: binds

B5: crotonylated pneumolysin (PLY incubated with crotonyl-CoA) (natural protein, Streptococcus pneumoniae D39, UniProt Q04IN8 1-471, looked up)
chain: B1 chain
modifications: lysine crotonylation (Kcr); K171 and K442 are the Kcr sites the paper names
notes: pneumolysin (PLY) of Streptococcus pneumoniae serotype 2 strain D39; also called crotonylated PLY; source: E. coli BL21 (λDE3), purified, then incubated with 125 µM crotonyl-CoA at 25 °C for 16 h
binding result [3]: binds
